Values quoted from earlier work, collected in publication PMC2649756.

Biological target: βI-spectrin 1898-2083 (Homo sapiens) (UniProt P11277)
Conditions: cited from earlier work

βI-spectrin 1898-2083 (Homo sapiens), sequence (P11277 1898-2083): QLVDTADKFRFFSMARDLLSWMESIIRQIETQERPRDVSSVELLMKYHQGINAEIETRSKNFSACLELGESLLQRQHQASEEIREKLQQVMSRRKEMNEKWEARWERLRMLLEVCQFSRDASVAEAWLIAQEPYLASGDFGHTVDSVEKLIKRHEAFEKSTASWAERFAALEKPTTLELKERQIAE
αI-spectrin, sequence (P02549 whole entry): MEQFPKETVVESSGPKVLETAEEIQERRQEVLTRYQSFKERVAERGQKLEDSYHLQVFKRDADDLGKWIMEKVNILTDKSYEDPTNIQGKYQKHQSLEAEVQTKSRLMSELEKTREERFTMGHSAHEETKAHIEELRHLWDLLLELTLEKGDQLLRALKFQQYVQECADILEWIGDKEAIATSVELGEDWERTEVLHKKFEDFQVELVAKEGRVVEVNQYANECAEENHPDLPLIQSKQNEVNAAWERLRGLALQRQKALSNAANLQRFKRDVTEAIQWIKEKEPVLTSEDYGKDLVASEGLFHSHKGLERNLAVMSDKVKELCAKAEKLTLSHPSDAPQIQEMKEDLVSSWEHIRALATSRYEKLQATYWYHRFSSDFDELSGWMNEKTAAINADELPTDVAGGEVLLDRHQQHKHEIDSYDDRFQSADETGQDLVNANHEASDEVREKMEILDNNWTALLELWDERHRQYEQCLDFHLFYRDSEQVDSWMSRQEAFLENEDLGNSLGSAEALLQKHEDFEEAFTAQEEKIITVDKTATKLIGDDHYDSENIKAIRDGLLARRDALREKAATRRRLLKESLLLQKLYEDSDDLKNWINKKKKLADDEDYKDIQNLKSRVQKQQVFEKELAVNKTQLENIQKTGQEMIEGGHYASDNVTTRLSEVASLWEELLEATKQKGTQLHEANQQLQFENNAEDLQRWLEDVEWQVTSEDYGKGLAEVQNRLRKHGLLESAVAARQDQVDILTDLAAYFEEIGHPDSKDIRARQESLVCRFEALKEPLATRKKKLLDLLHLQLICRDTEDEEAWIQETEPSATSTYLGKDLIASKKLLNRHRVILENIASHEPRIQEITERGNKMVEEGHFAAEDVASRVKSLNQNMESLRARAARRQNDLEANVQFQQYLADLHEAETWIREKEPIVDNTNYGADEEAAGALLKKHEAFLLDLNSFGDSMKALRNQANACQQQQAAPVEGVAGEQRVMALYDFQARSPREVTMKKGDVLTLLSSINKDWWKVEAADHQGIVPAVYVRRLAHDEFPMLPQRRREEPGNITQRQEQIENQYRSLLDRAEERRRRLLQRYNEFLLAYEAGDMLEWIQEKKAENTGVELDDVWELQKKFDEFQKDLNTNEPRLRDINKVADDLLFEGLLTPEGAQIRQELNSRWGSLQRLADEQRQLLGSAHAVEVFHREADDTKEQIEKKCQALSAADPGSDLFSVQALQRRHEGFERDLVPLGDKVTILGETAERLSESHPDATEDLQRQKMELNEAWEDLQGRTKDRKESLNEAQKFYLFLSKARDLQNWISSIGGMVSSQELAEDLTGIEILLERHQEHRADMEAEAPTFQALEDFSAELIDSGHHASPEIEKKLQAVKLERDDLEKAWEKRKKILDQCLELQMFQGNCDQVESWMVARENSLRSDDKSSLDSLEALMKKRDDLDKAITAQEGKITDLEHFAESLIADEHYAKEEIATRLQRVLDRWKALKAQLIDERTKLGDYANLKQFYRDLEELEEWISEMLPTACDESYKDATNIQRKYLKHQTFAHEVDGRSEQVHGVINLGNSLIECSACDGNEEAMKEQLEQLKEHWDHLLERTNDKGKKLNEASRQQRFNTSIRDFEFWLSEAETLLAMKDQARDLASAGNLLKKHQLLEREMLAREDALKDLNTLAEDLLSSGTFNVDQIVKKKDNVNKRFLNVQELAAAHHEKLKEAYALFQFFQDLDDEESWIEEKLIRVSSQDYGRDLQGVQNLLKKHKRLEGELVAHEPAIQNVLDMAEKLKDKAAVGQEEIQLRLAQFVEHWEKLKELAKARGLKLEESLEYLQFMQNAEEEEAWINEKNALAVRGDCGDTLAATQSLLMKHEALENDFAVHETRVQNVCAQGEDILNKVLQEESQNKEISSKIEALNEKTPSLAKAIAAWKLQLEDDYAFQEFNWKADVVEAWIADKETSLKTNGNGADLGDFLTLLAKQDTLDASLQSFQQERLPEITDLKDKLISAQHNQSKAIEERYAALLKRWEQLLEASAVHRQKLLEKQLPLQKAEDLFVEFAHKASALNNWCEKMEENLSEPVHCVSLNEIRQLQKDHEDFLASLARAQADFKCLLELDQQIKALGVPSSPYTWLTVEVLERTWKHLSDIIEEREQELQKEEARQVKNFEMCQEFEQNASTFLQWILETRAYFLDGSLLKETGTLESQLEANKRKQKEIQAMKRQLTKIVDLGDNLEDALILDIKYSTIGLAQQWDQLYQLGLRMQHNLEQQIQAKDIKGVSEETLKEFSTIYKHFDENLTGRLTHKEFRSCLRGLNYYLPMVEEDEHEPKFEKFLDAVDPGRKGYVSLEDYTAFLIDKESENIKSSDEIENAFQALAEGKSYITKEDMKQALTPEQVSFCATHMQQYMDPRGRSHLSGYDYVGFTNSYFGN

αI-spectrin (from UniProt P02549)
Kd: 1 µM
